US20240294570A1 (BRANDEIS UNIVERSITY, published 2024)
Non-standard residues stand in square brackets, D forms with d. No end group written: not given here. *: point of attachment. pY = N[C@@H](Cc1ccc(OP(=O)(O)O)cc1)C(=O)O; NBD = O=[N+]([O-])c1ccc(*)c2nonc12; βAla = NCCC(=O)O

Molecular target: Alkaline phosphatase (Biomatik, Cat. No. A1130)
Test: cell-based or functional assay

B1: L-phosphopentapeptide 5, NBD-βA-LLLLpY (peptide)
peptide: {NBD}-[βAla]LLLL[pY]
- half-life of 5 (400 µM) with 0.1 U/mL ALP: 122 min
- half-life of 5 at 100 µM with 0.5 U/mL ALP (LC-MS): 27.3 min
- half-life of 5 at 200 µM with 0.5 U/mL ALP (LC-MS): 21.6 min
- half-life of 5 at 400 µM with 0.5 U/mL ALP (LC-MS): 30.6 min

B2: phosphopentapeptide 9, NBD-βA-llllpY (peptide)
peptide: {NBD-βAla}-[dL][dL][dL][dL][pY]
- half-life of 9 at 100 µM with 0.5 U/mL ALP: 24.6 min
- half-life of 9 at 200 µM with 0.5 U/mL ALP: 21.6 min
- half-life of 9 at 400 µM with 0.5 U/mL ALP: 27 min

B3: phosphopentapeptide 7, NBD-βA-LLpYLL (peptide)
peptide: {NBD}-[βAla]LL[pY]LL
- half-life of 7 at 100 µM with 0.5 U/mL ALP: 127 min
- half-life of 7 at 200 µM with 0.5 U/mL ALP: 112 min
- half-life of 7 at 400 µM with 0.5 U/mL ALP: 126 min
